In patent US20140056907A1 (Regeneron, published 2014):

T1: human ASIC1/ASIC3 channels (co-expressed human ASIC1a and human ASIC3) (human, UniProt Q9UHC3 1-531)
T1 construct: whole, on cells; 3T3 cells co-expressing both subunits; also called 3T3/hASIC1/3; 3T3-hASIC1/ASIC3
T1 sequence 1: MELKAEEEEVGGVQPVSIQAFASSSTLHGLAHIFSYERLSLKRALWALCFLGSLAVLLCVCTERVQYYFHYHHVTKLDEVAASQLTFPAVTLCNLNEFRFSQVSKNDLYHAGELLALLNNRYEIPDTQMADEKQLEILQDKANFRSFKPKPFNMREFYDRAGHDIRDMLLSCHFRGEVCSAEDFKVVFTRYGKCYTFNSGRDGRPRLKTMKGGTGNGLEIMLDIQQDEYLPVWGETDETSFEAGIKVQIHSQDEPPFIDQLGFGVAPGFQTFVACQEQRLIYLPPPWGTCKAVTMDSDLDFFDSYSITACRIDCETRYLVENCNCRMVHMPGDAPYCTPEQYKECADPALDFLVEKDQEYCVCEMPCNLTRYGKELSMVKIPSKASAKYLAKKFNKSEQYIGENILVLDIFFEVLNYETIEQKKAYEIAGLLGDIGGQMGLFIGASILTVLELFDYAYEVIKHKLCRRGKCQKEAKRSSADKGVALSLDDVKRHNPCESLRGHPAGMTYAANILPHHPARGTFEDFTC
T1 sequence 2: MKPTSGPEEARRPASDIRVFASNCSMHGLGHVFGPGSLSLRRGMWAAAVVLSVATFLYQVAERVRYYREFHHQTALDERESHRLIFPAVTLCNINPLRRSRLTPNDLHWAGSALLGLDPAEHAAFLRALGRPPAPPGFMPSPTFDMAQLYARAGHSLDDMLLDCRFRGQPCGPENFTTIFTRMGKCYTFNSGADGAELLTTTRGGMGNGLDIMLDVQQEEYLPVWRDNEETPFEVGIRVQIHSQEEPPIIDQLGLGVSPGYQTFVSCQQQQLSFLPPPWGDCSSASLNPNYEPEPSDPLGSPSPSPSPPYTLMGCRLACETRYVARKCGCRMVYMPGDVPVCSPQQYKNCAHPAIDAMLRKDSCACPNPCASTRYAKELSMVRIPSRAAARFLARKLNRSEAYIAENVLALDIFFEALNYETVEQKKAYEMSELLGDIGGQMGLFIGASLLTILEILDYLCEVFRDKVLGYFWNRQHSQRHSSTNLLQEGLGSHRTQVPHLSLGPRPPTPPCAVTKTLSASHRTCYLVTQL

T2: human ASIC3 (human, UniProt Q9UHC3 1-531)
T2 construct: whole, on cells; Expressed on 3T3 cells (3T3/hASIC3) or HEK293 cells (HEK/hASIC3-QCells); also called hASIC3
T2 sequence (looked up): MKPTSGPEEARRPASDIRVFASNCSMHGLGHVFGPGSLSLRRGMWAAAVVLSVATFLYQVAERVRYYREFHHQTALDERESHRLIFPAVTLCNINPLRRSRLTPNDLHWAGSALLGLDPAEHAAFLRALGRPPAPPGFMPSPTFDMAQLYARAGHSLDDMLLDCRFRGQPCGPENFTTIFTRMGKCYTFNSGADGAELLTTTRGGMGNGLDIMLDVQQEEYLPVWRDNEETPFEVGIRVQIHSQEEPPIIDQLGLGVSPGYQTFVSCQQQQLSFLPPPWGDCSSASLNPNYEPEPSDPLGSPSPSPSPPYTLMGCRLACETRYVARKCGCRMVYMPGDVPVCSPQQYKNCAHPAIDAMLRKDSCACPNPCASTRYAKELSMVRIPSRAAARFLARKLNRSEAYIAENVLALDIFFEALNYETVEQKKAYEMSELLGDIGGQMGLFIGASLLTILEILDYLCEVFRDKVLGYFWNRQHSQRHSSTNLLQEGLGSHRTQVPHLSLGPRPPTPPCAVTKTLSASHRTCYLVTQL

T3: human ASIC1 (human, UniProt P78348 1-528)
T3 sequence: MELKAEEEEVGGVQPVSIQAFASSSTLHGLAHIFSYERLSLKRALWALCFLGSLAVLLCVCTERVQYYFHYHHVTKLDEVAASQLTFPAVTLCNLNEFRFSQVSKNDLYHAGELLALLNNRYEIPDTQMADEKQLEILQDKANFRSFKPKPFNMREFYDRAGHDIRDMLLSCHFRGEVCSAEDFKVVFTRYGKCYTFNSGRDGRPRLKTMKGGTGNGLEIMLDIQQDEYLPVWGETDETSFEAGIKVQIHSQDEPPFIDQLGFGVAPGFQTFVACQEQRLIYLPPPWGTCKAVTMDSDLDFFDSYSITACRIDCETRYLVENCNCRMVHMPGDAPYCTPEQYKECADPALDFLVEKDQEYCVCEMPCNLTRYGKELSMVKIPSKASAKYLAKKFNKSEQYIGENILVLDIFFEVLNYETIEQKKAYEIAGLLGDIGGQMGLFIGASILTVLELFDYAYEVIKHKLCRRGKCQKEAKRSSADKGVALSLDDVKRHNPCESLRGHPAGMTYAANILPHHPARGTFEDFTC


What was measured:
[1] = biological target: T1, human ASIC1/ASIC3 channels …; test: FACS, 3T3/hASIC1/3 cells, 10 nM antibody
Excerpt: (§1) For these experiments, four cell lines were constructed: (a) a mouse fibroblast 3T3 cell line stably transfected to overexpress full length human ASIC3 (3T3/hASIC3; amino acids 1-531 of NCBI accession number NP_{—}004760.1), (b) a 3T3 cell line stably transfected to co-express full length human ASIC1a and human ASIC3 (3T3/hASIC1/3; amino acids 1-528 of NCBI accession number NP_{—}001086.2 and amino acids 1-531 of NCBI accession number NP_{—}004760.1), (c) […] a stably transfected 3T3 cell line expressing the full-length mouse ASIC3 channel (3T3/mASIC3; amino acids 1-530 of NCBI accession number NP_{—}892045.2), and (d) a 3T3 cell line stably transfected to co-express full length mouse ASIC1a and mouse ASIC3 (3T3/mASIC1/3; amino acids 1-526 of NCBI accession number NP_{—}033727 and amino acids 1-530 of NCBI accession number NP_{—}892045.2). Antibody binding was determined using flow cytometry (FACS).
(§2) To perform the FACS binding experiments, adherent cells were collected with cold Millipore Accutase 3-5 minutes, spun and resuspended in ice-cold FACS buffer (PBS, 2% HI-FBS and 0.09% Na-azide). Anti-ASIC1 antibody at final concentrations of 10 nM was added for 20-30 minutes on ice. Cells were washed with 900 μL ice-cold FACS buffer, spun, and resuspended in 100 μL ice-cold FACS buffer. A secondary antibody which recognizes human Fc (Jackson Immuno Research, #109-136-098) and is conjugated to allophycocyanin, was then added to the cell mixture at a final concentration of 2.5 ug/mL. After incubating for 20 minutes on ice, the cells were washed and resuspended in FACS buffer, then sorted and analyzed on a flow cytometer (FACSCanto II, BD Biosciences, San Jose, Calif.) to determine relative binding by the candidate antibodies to the tested cell lines. Histograms of cells stained with anti-ASIC1 antibodies were compared with those of cells stained with secondary antibody alone. Percentage of ASIC1 signal over secondary antibody alone was calculated using FlowJo software (Tree Star, Ashland, Oreg.).

human ASIC3 = biological target: T2, human ASIC3; test: FACS, 3T3/hASIC3 cells, 10 nM antibody
Excerpt: as §1, §2

human ASIC1 [2] = biological target: T3, human ASIC1; test: cell-based or functional assay
human ASIC1 [3] = biological target: T3, human ASIC1; test: FACS titration, 3T3/hASIC1 cells
Protocol: To perform the FACS binding experiments, adherent cells were collected using 1 mM EDTA in PBS, then washed, and re-suspended in cold PBS containing 5% FBS. For each binding experiment, each anti-ASIC1 antibody ([…] or ND7 cells) was added to 250,000 cells in 500 μL of PBS with 5% FBS. After incubation for 20 minutes at room temperature, a secondary antibody which recognizes human Fc (Cat. No. 109-136-098, Jackson ImmunoResearch Laboratories, Inc., West Grove, Pa.) or mouse Fc (Cat. No. 550826, BD Biosciences, San Jose, Calif.) and is conjugated to allophycocyanin, was then added to the cell mixture at a final concentration of 13.3 nM. After incubating for 20 minutes on ice, the cells were washed and resuspended in PBS containing 5% FBS, then sorted and analyzed on a flow cytometer (FACSCalibur, BD Biosciences, San Jose, Calif.) to determine relative binding by the candidate antibodies to the tested cell lines. Histograms of cells stained with anti-ASIC1 antibodies were compared with those of cells stained with secondary antibody alone. Percentage of ASIC1 signal over secondary antibody alone was calculated using FlowJo software (Tree Star, Ashland, Oreg.).

human ASIC1 [4] = biological target: T3, human ASIC1; test: cell-based or functional assay; remark: listed apart in the source

binding result [1]	binding result (human ASIC3)	Current inhibition (%) at 100 nM antibody, Q-Patch, pH 6.0 (human ASIC1 [2]) [%]	EC50 (human ASIC1 [3]) [nM]	FLIPR Dose Curve, pH 5.0 % Block (human ASIC1 [4]) [%]	FLIPR Dose Curve, pH 5.5 % Block (human ASIC1 [4]) [%]	FLIPR Dose Curve, pH 5.5 IC50 (human ASIC1 [4]) [nM]	Binder
binds	binds	0	0.836				H4H6363P (antibody, V domains shown) VH: EVQLLESGGGLVQPGGSLRLSCAASGFIFTNYAMTWLRQAPGKGLEWVSALSGSGGTTYYADSVKGRFTTSRDNSKNTLYLQMNSLRAEDTAVYYCAKDPHYYGSGNDYFYYYGLDVWGRGTTVTVSS VL: not shown
binds	binds		0.023	25	37	1.1	H1M6716N (antibody, mouse IgG1, V domains shown) VH: QVQLVQSGAEVKKPGASVKVSCKASGYTFTIYDINWVRQATGQGLEWMGWMNPRSGSTGYSQKFQGRVTMTRNTSINTAFMELSSLRSEDTAVYYCVRGQLVLGYWGQGTLVTVSS VL: not shown
